This assay deals with wildtype full-length Grb2 (human, UniProt P62993 1-217). In words: ITC. Background: In ITC the heat of successive injections is recorded.
Chain of wildtype full-length Grb2 (P62993 whole entry): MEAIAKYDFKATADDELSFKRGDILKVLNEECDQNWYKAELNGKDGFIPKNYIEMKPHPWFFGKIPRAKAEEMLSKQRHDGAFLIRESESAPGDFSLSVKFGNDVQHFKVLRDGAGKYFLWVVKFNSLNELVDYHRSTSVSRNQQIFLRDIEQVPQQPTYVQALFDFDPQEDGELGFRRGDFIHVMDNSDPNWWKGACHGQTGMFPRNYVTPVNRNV

B1: wildtype proline-rich (PR) domain of Gab1 (domain or fragment, human, UniProt Q13480 331-530, looked up)
chain: TSKLDTIPDIPPPRPPKPHPAHDRSPVETCSIPRTASDTDSSYCIPTAGMSPSRSNTISTVDLNKLRKDASSQDCYDIPRAFPSDRSSSLEGFHNHFKVKNVLTVGSVSSEELDENYVPMNPNSPPRQHSSSFTEPIQEANYVPMTPGTFDFSSFGMQVPPPAHMGFRSSPKTPPRRPVPVADCEPPPVDRNLKPDRKVK
The term Kd denotes the free concentration of one partner at which half of the binding sites on the other are occupied at equilibrium, for simple one-to-one binding. A low value points to higher affinity. One may read the stoichiometry N as a count of units in the complex or per binding partner. B1: the Kd stood at 7.21 µM, the dH is -34.5 kcal/mol and the “stoichiometry N” value was determined as 1.94.

B2: PR domain of Gab1 with the G2 motif mutated (domain or fragment, human, UniProt Q13480 331-530, looked up)
chain: TSKLDTIPDIPPPRPPKPHPAHDRSPVETCSIPRTASDTDSSYCIPTAGMSPSRSNTISTVDLNKLRKDASSQDCYDIPRAFPSDRSSSLEGFHNHFKVKNVLTVGSVSSEELDENYVPMNPNSPPRQHSSSFTEPIQEANYVPMTPGTFDFSSFGMQVPPPAHMGFRSSPKTPPRRPVPVADCEPPPVDANLAPDRKVK
As to B2, the Kd stood at 20.3 µM, the dH is -13.2 kcal/mol and the “stoichiometry N” value came out at 1.02.

B3: PR domain of Gab1 with the G1 motif mutated (domain or fragment, human, UniProt Q13480 331-530, looked up)
chain: TSKLDTIPDIPPPAPPAPHPAHDRSPVETCSIPRTASDTDSSYCIPTAGMSPSRSNTISTVDLNKLRKDASSQDCYDIPRAFPSDRSSSLEGFHNHFKVKNVLTVGSVSSEELDENYVPMNPNSPPRQHSSSFTEPIQEANYVPMTPGTFDFSSFGMQVPPPAHMGFRSSPKTPPRRPVPVADCEPPPVDRNLKPDRKVK
With B3, the Kd worked out at 2.24 µM, the dH is -23.4 kcal/mol and the “stoichiometry N” value is 1.07.

Source of the values: article PMC3365654 (The Febs Journal, 2012).
